Measured values as given in US20250346644A1 (LATTICON SUZHOU BIOPHARMACEUTICALS, published 2025).
Residue numbers refer to the chain shown, from its start. Names and notes keep the numbering of the source. Read-outs that look alike come from different tables or passages of the source.

Assays:
[1] = molecular target: T1, hIL2Rα/β complex (human, UniProt P01589 22-213; P14784 27-239); assay: BLI (ForteBio): biotin-CD25 on an SA sensor, CD122 step, then sample together with CD122
T1 construct: assembled in the BLI assay from bought subunits; also called hIL2Rα/O complex
T1 sequence (looked up) 1: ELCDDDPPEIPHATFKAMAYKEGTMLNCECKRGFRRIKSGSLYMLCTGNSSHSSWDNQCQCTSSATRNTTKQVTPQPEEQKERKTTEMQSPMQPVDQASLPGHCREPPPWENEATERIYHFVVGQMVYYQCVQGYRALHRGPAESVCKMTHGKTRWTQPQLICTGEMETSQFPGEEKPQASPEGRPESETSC
T1 sequence (looked up) 2: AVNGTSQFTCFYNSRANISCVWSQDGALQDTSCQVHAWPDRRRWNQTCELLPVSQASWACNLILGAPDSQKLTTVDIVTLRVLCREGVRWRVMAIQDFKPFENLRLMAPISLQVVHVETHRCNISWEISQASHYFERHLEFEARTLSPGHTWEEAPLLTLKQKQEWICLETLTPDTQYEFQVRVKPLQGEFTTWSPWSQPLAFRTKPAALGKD

[2] = molecular target: T2, hIL2Rβ/γ on CD25-knockout NK-92 cells (human, UniProt P14784 27-551; P31785 23-369); assay: cell-based or functional assay
T2 sequence (looked up) 1: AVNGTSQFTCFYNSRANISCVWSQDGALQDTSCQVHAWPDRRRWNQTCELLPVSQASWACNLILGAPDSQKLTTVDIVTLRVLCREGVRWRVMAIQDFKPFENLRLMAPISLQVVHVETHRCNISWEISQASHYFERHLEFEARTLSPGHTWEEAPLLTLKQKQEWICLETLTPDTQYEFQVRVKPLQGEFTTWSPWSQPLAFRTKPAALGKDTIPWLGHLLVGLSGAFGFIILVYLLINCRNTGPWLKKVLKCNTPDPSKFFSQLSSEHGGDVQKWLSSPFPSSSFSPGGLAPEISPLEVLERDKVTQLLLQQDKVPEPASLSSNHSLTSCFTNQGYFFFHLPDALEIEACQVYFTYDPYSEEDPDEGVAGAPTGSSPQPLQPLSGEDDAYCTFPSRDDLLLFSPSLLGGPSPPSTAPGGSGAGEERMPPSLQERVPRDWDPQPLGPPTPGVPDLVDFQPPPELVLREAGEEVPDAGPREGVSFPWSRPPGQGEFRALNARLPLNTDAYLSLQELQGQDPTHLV
T2 sequence (looked up) 2: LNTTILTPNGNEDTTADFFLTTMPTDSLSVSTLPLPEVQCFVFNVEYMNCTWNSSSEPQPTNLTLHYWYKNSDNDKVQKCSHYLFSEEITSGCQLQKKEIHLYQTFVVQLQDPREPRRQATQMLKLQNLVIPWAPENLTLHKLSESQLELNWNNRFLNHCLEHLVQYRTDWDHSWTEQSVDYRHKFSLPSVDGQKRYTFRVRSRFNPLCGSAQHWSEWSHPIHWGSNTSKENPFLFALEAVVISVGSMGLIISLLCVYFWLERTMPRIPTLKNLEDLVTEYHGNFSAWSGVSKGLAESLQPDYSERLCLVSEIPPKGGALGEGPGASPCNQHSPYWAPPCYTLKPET

[3] = molecular target: T3, high-affinity IL2R expressed on the surface of CTLL-2 cells; assay: cell-based or functional assay
T3 sequence (P01590 whole entry, species assumed, looked up): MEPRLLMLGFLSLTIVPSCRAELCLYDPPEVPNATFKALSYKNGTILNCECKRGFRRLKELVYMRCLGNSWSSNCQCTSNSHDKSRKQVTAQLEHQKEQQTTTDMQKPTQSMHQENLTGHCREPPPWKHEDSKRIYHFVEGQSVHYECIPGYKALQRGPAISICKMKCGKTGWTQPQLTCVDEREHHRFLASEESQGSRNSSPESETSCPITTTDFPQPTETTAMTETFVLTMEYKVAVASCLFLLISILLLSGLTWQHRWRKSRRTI
T3 sequence (P16297 whole entry, species assumed, looked up): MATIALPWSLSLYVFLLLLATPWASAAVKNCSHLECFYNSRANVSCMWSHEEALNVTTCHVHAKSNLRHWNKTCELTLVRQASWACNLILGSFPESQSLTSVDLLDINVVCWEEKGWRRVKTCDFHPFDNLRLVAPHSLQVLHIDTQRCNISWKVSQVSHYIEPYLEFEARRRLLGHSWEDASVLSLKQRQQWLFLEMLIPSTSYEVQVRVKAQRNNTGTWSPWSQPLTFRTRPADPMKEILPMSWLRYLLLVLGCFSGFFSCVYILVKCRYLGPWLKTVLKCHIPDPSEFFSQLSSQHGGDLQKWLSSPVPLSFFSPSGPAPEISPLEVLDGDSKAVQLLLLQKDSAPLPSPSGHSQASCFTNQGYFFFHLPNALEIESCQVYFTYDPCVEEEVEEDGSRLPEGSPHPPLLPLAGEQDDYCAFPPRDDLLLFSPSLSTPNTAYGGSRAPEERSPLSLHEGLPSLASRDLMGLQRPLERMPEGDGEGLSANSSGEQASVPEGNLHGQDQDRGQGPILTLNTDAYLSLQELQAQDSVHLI
T3 sequence (P34902 whole entry, species assumed, looked up): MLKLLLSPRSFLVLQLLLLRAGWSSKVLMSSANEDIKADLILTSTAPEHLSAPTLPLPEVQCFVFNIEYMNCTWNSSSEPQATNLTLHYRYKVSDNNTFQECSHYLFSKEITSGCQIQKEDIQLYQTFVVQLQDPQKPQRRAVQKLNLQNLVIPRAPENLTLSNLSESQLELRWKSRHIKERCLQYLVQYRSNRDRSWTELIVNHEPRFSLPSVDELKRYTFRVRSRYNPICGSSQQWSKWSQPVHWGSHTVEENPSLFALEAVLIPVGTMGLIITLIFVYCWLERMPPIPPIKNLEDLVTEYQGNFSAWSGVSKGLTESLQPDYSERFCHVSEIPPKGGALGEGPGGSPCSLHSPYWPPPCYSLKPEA

[4] = molecular target: T3, high-affinity IL2R expressed on the …; assay: cell-based or functional assay; remark: listed apart in the source
[5] = molecular target: T4, hIL2Rα/β/γ complex (human, UniProt P01589 22-213; P14784 27-239; P31785 23-254); assay: BLI (ForteBio): biotin-CD25 on an SA sensor, CD122 step, then sample together with CD132
T4 construct: assembled in the BLI assay from bought subunits; also called hIL2Rα/o/γ complex
T4 sequence (looked up) 1: T1 sequence (looked up) 1
T4 sequence (looked up) 2: T1 sequence (looked up) 2
T4 sequence (looked up) 3: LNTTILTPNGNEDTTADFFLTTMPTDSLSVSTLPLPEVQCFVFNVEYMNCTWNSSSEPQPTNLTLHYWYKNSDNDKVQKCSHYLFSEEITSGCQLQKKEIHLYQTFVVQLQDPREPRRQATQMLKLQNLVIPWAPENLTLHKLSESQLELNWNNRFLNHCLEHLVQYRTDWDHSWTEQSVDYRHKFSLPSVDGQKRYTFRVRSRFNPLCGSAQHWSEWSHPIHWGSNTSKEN

[6] = molecular target: T5, hIL2Rα (hCD25) (human, UniProt P01589 22-213, limits assumed); assay: BLI (ForteBio): biotin-CD25 on an SA sensor, buffer step, then sample
T5 construct: bought recombinant protein; also called hCD25 (Acro); biotin-CD25 (Acro)
T5 sequence (looked up): T1 sequence (looked up) 1

[7] = molecular target: T6, FcγRIIa (UniProt P12318 36-218, limits assumed); assay: BLI (ForteBio), series of concentrations, not labelled on the sheet
T6 sequence (looked up): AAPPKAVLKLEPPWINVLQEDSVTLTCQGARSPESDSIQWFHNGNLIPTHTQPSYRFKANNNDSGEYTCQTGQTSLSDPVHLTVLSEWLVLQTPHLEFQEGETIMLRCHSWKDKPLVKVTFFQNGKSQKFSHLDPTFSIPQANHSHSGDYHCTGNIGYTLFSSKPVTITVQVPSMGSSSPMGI

[8] = molecular target: FcγRI (UniProt P12314 16-288, limits assumed); assay: as above
Sequence of FcγRI (P12314 16-288 limits assumed): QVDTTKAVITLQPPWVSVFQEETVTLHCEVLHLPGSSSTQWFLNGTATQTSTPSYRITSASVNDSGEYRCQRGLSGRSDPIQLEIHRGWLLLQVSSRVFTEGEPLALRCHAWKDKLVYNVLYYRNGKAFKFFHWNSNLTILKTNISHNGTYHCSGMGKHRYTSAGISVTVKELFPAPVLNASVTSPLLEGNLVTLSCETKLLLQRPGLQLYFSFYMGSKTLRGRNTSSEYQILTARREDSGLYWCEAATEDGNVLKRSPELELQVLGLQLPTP

[9] = molecular target: FcγRIIIa-158F (UniProt P08637 17-208, limits assumed); assay: as above
Sequence of FcγRIIIa-158F (P08637 17-208 limits assumed): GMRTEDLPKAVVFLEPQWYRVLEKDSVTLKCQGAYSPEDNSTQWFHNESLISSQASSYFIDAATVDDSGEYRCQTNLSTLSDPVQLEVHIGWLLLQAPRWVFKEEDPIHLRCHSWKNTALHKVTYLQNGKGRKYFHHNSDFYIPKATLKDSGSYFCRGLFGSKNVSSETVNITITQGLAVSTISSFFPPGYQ

[10] = molecular target: T7, hIL2-DM-his (human, UniProt P60568 21-153); assay: BLI ForteBio, Ab on Protein A sensor
T7 construct: expressed in ExpiCHO-S cells, nickel-column purified; also called hIL-2 mutein containing two point mutations K64G and N90R (with a his-tag); not shown: his-tag
Target sequence in this assay (P60568 21-153 K84G/N110R): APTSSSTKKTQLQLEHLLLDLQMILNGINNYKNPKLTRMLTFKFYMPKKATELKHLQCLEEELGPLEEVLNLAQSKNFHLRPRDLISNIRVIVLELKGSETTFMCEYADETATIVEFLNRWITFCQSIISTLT

[11] = molecular target: T8, mIL2-his (mouse, UniProt P04351 21-169); assay: ELISA, antibody captured by anti-human IgG, mIL2-his titrated
T8 construct: also called wild-type mouse IL-2 (with a his-tag); not shown: his-tag
T8 sequence (looked up): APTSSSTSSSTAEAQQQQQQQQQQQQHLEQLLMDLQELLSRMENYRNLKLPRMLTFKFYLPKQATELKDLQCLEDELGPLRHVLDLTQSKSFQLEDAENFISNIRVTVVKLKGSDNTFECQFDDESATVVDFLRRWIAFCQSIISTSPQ

[12] = molecular target: T9, hIL2-his (human, UniProt P60568 21-153); assay: ELISA (section 2.1.1): antibody (13.3 nM) captured on coated goat anti-human IgG, hIL2-his titrated (the x axis is the antigen concentration), HRP anti-6xHis
T9 construct: the construct is not described further; not shown: his-tag

[13] = molecular target: T8, mIL2-his; assay: BLI ForteBio, Ab on Protein A sensor
[14] = molecular target: T7, hIL2-DM-his; assay: BLI ForteBio, Ab on Protein A sensor; remark: listed apart in the source
[15] = molecular target: T10, hIL2-TM-his (human, UniProt P60568 21-153); assay: BLI ForteBio, Ab on Protein A sensor
T10 construct: also called hIL-2 mutein containing three point mutations K64G, N90R and M104E (with a his-tag); not shown: his-tag
T10 chain: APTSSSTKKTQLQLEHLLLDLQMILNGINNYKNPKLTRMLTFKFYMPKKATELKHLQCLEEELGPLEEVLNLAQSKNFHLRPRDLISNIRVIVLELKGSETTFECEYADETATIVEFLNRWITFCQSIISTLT

B1: K2G11-Cy05 (other)
chain: SSSTKKTQLQLEHLLLDLQMILNGINNYKNPKLTRMLTFKFYMPKKATELKHLQCLEEELGPLEEVLNLAQSKNFHLRPRDLISNIRVIVLELKGSETCFMCEYADETATIVEFLNRWITFLQSIISTLTGGGGSGGGGSGGGGSGGGGSQVQLVQSGAEVKKPGATVKISCKVSGDTITAYYMHWVRQAPGQGLEWIGRIDPDDDSTKYAENFKGRVTITADTSTDTAYMELSSLRSEDTAVYYCTTITFLYSRELRWFAYWGQGTLVTVSSASTKGPSVFPLAPSSKSTSGGTAALGCLVKDYFPEPVTVSWNSGALTSGVHTFPAVLQSSGLYSLSSVVTVPSSSLGTQTYICNVDHKPSNTKVDKRVEPKSCDKTHTCPPCPAPEFEGGPSVFLFPPKPKDTLMISRTPEVTCVVVDVSHEDPEVQFNWYVDGVEVHNAKTKPREEQYNSTYRVVSVLTVLHQDWLNGKEYKCKVSNKALPASIEKTISKAKGQPREPQVYTLPPSRDELTKNQVSLTCLVKGFYPSDIAVEWESNGQPENNYKTTPPVLDSDGSFFLYSKLTVDKSRWQEGNVFSCSVMHEALHNHYTQKSLSLSPGK
VL: DIVLTQSPATLSLSPGERATLSCQASQYISNYLSWYQQKPGQAPRLLIYSATSLASGIPARFSGSRCGTDFTLTISSLEPEDFAVYYCLQHYSTPYTFGQGTKLEIK
modifications: Engineered disulfide between chain 1 Cys99 (IL-2 T102C) and chain 2 Cys67 (S67C), as in Table 32 (LC: C67-HC: C99).
notes: hIL2-DM (Δ3, C125L) fused to the heavy chain of K2G11, disulfide IL:102-L:67
Which results are given for B1?
binding result [1]: no binding; Activity in Promoting NK-92 (CD25-KO) Cell Proliferation (EC50, nM) [2]: 0.065 nM; Activity in Promoting CTLL-2 Cell Proliferation (EC50, nM) [3]: 9.17 nM; Activity in Promoting CTLL-2 Cell Proliferation (EC50, nM) [4]: 11.2 nM; binding result [5]: no binding; binding result [6]: no binding

B2: K2G11-pITM (antibody)
VH: QVQLVQSGAEVKKPGATVKISCKVSGDTITAYYMHWVRQAPGQGLEWIGRIDPDDDSTKYAENFKGRVTITADTSTDTAYMELSSLRSEDTAVYYCTTITFLYSRELRWFAYWGQGTLVTVSSASTKGPSVFPLAPSSKSTSGGTAALGCLVKDYFPEPVTVSWNSGALTSGVHTFPAVLQSSGLYSLSSVVTVPSSSLGTQTYICNVDHKPSNTKVDKRVEPKSCDKTHTCPPCPAPEFEGGPSVFLFPPKPKDTLMISRTPEVTCVVVDVSHEDPEVQFNWYVDGVEVHNAKTKPREEQYNSTYRVVSVLTVLHQDWLNGKEYKCKVSNKALPASIEKTISKAKGQPREPQVYTLPPSRDELTKNQVSLTCLVKGFYPSDIAVEWESNGQPENNYKTTPPVLDSDGSFFLYSKLTVDKSRWQEGNVFSCSVMHEALHNHYTQKSLSLSPGK
VL: B1 VL with C67S
notes: K2G11 with pI (N203D/K274Q/Q419E) and TM (L234F/L235E/P331S) mutations, EU numbering, in the hIgG1 heavy chain constant region; also called humanized anti-IL-2 antibody K2G11-pITM; copies: 2 + 2
Does B2 bind [7]?
Result: no binding (tested: not printed on the sheet)

Does B2 bind [8]?
Result: no binding (tested: not printed on the sheet)

Does B2 bind [9]?
Result: no binding (tested: not printed on the sheet)

B3: hS4B6-H6K3 (antibody, V domains shown)
VH: QVQLVQSGAEVKKPGATVKISCKVSGDTITAYYLHWVRQAPGQGLEWIGRIDPEDDSTKYAENFKNRVTITADTSTNTAYMELSSLRSEDTAVYYCTTVTFYYSRELRWFAYWGQGTLVTVSS
VL: B1 VL with Y28D, S30G, S56D, C67S, F71Y
notes: full antibody
Which results are given for B3?
Binding Response (nm) [10]: 0.133 nm; Kd [10]: 46.9 nM; koff [10]: 0.0193 s⁻¹; kon [10]: 413000 M⁻¹ s⁻¹; EC50 [11]: 0.0183 µg/mL; binding result [12]: no binding (tested: 2 µg/mL); Kd [13]: 1 nM; koff [13]: 0.00018 s⁻¹; kon [13]: 179000 M⁻¹ s⁻¹; Kd [14]: 45.3 nM; koff [14]: 0.01 s⁻¹; kon [14]: 222000 M⁻¹ s⁻¹; Kd [15]: 24 nM; koff [15]: 0.00569 s⁻¹; kon [15]: 237000 M⁻¹ s⁻¹
